According to patent publication US10450368 (DUKE UNIVERSITY, dated 2019):

Legend:
CH0505_CON D7gp120/293i = assay: ELISA
CH505w020.14D8gp120 = molecular target: T1, CH505w020.14D8gp120; assay: ELISA
T1 construct: also called CH505w20.14 gp120

CH505w030.20D8gp120/293F = molecular target: T2, CH505w030.20D8gp120/293F; assay: ELISA
T2 construct: also called CH505w30.20 gp120

CH505.w30.12D8gp120 = molecular target: T3, CH505.w30.12D8gp120; assay: ELISA
T3 construct: also called CH505w30.12 gp120

CH505w136.B18D8gp120 = assay: ELISA
CH505.M5D8gp120293F = assay: ELISA
CH505.M10D8gp120 = assay: ELISA
CH505.M11D8gp120/293F = assay: ELISA
CH505.M19D8gp120 = assay: ELISA
CH505.M21D8gp120/293F = assay: ELISA
CH505.M9D8gp120/293F = assay: ELISA
CH505.M7D8gp120/293F = assay: ELISA
CH505.TF mutant gp120 M6 = molecular target: T4, CH505.TF mutant gp120 M6 (HIV-1); assay: ELISA
T4 construct: domain: gp120

CH505.TF mutant gp120 M8 = molecular target: T5, CH505.TF mutant gp120 M8 (HIV-1); assay: ELISA
T5 construct: domain: gp120

[1] = molecular target: T6, CH505.TF mutant gp120 M20 (HIV-1); assay: ELISA
T6 construct: domain: gp120

SSB = molecular target: T7, SSB (UniProt P05455 1-408); assay: ELISA, LogAUC grade
T7 sequence: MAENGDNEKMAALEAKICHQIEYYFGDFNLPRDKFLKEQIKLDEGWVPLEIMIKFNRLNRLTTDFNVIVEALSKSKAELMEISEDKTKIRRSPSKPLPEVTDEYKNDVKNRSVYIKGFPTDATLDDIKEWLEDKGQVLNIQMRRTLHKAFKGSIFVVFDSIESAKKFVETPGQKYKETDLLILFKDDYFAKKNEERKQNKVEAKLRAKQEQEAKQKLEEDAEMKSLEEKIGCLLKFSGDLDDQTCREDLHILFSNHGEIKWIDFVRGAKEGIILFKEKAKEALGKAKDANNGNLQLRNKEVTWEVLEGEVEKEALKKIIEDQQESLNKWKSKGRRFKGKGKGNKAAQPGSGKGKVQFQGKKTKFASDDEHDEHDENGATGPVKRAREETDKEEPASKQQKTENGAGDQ

Scl-70 [2] = molecular target: T8, Scl-70 (UniProt P11387 1-765); assay: ELISA, LogAUC grade
T8 sequence: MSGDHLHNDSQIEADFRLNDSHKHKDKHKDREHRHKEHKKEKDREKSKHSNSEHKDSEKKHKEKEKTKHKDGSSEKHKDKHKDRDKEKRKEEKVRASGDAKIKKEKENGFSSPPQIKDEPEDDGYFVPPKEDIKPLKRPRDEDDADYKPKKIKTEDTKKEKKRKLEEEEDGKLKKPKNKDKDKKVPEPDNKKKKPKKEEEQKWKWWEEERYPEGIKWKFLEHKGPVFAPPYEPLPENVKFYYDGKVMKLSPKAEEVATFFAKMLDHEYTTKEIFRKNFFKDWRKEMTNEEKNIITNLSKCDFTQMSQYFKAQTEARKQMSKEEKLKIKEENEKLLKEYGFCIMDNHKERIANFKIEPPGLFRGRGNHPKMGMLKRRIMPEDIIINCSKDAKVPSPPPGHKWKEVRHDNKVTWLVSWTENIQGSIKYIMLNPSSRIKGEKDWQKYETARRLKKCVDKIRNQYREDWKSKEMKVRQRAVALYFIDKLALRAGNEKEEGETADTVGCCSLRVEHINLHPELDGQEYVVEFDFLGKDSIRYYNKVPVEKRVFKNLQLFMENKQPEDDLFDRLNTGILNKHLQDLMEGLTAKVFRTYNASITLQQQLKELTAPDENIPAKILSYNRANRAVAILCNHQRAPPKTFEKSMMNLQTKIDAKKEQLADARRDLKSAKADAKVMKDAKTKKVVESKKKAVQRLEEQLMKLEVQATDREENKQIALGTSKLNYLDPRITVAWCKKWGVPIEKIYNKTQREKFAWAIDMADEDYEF

Jo-1 = molecular target: T9, Jo-1 (UniProt P12081 1-509); assay: ELISA, LogAUC grade
T9 sequence: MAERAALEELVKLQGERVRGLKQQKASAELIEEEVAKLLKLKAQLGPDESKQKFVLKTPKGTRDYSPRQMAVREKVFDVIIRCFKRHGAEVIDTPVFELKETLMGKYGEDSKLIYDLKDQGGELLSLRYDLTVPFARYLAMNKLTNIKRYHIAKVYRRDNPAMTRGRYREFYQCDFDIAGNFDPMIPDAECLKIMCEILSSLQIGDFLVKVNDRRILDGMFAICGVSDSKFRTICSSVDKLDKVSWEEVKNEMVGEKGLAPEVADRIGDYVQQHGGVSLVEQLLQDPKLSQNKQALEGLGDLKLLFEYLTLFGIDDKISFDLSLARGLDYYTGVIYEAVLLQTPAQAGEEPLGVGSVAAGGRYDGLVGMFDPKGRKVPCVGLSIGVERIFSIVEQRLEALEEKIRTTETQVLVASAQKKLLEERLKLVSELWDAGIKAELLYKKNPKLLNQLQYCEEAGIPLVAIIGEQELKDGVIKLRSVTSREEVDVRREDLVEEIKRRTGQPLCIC

Centromere B = molecular target: T10, Centromere B (UniProt P07199 1-599); assay: ELISA, LogAUC grade
T10 construct: also called Cent B
T10 sequence: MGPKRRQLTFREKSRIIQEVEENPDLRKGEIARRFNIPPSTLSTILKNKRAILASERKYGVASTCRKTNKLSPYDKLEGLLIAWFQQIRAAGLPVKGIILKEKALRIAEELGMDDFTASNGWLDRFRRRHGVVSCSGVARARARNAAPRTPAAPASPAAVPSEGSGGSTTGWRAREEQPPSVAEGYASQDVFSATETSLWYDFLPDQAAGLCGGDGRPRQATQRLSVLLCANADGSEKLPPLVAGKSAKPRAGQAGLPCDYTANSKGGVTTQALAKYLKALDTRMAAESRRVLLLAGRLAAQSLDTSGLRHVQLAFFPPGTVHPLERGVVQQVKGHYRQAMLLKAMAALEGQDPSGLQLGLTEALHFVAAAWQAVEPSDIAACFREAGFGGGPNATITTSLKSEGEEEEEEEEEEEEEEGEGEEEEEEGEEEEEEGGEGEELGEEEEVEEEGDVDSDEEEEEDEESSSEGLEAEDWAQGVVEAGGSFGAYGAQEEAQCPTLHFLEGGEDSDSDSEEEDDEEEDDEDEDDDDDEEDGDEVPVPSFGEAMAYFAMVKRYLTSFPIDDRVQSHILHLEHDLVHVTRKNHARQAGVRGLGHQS

SSA [3] = molecular target: T11, SSA; assay: AtheNA, Ab 25 ug/ml
T11 construct: also called SSA (Ro)

Sm (Smith antigen) [4] = molecular target: T12, Sm (Smith antigen); assay: AtheNA, Ab 25 ug/ml
T12 construct: Protein complex

RNP (ribonucleoprotein) [5] = molecular target: T13, RNP (ribonucleoprotein); assay: AtheNA, Ab 25 ug/ml
T13 construct: Protein-RNA complex

Scl-70 [6] = molecular target: T8, Scl-70; assay: AtheNA, Ab 25 ug/ml
Histones [7] = molecular target: T14, Histones; assay: AtheNA, Ab 25 ug/ml
T14 construct: Mixture of proteins

SSA [8] = molecular target: T11, SSA; assay: AtheNA, Ab 50 ug/ml
Sm (Smith antigen) [9] = molecular target: T12, Sm (Smith antigen); assay: AtheNA, Ab 50 ug/ml
Histones [10] = molecular target: T14, Histones; assay: AtheNA, Ab 50 ug/ml
SSA [11] = molecular target: T11, SSA; assay: AtheNA, Ab 12.5 ug/ml
Sm (Smith antigen) [12] = molecular target: T12, Sm (Smith antigen); assay: AtheNA, Ab 12.5 ug/ml
RNP (ribonucleoprotein) [13] = molecular target: T13, RNP (ribonucleoprotein); assay: AtheNA, Ab 12.5 ug/ml
Scl-70 [14] = molecular target: T8, Scl-70; assay: AtheNA, Ab 12.5 ug/ml
Histones [15] = molecular target: T14, Histones; assay: AtheNA, Ab 12.5 ug/ml
SSA [16] = molecular target: T11, SSA; assay: AtheNA, Ab 6.25 ug/ml
Sm (Smith antigen) [17] = molecular target: T12, Sm (Smith antigen); assay: AtheNA, Ab 6.25 ug/ml
RNP (ribonucleoprotein) [18] = molecular target: T13, RNP (ribonucleoprotein); assay: AtheNA, Ab 6.25 ug/ml
Scl-70 [19] = molecular target: T8, Scl-70; assay: AtheNA, Ab 6.25 ug/ml
Histones [20] = molecular target: T14, Histones; assay: AtheNA, Ab 6.25 ug/ml
[21] = molecular target: T15, HIV-1 CH505 transmitted/founder gp120 Env (HIV-1); assay: competition ELISA, blocking of CH106 binding to gp120
T15 construct: domain: gp120; also called CH505.TF gp120; CH505 TF gp120 Env

B1: CH235 UCA (antibody, V domains shown)
VH: QVQLVQSGAEVKKPGASVKVSCKASGYTFTSYYMHWVRQAPGQGLEWMGIINPSGGSTSYAQKFQGRVTMTRDTSTSTVYMELSSLRSEDTAVYYCARDVGTEGSLLHFDYWGQGTLVTVSS
VL: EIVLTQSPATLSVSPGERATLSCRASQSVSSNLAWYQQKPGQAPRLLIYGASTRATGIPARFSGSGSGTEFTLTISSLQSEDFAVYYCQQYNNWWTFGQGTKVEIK
notes: also called unmutated common ancestor of the CH235 lineage
CH0505_CON D7gp120/293i
  LogAUC: 0
CH505w020.14D8gp120
  LogAUC: 0
CH505w030.20D8gp120/293F
  LogAUC: 0
CH505.w30.12D8gp120
  LogAUC: 0
CH505w136.B18D8gp120
  LogAUC: 0
CH505.M5D8gp120293F
  LogAUC: 0.24
CH505.M10D8gp120
  LogAUC: 0
CH505.M11D8gp120/293F
  LogAUC: 0
CH505.M19D8gp120
  LogAUC: 0
CH505.M21D8gp120/293F
  LogAUC: 0
CH505.M9D8gp120/293F
  LogAUC: 0
CH505.M7D8gp120/293F
  LogAUC: 0
CH505.TF mutant gp120 M6
  LogAUC: 0
CH505.TF mutant gp120 M8
  LogAUC: 0
[1]
  LogAUC: 0
SSB
  binding result: no binding
Scl-70 [2]
  binding result: no binding
Jo-1
  binding result: no binding
Centromere B
  binding result: no binding

B2: CH236 (antibody, V domains shown)
VH: QVQLVQSGAAVKRPGASVTISCRASGYTFTTYYIHWVRQAPGQRLELMGMIDPSRGRTDYAQKFQGRVTMSRDTSTSTLYMELRSLRPDDTALYYCVRNVGTEGSLLHYDYWGQGTLVTVSS
VL: EIVLTQSPATLSVSPGERVTLSCRASQSVRNNLAWYRQKRGQAPRLLIYGASTRATGIPARFSGSGSGTEFTLTISSMQSEDFAVYYCQQYNNWWTFGQGTKVEIK
notes: also called CH236_4A/293i
CH0505_CON D7gp120/293i
  LogAUC: 6.89
CH505w020.14D8gp120
  LogAUC: 6.72
CH505w030.20D8gp120/293F
  LogAUC: 6.23
CH505.w30.12D8gp120
  LogAUC: 0.95
CH505w136.B18D8gp120
  LogAUC: 3.51
CH505.M5D8gp120293F
  LogAUC: 7.27
CH505.M10D8gp120
  LogAUC: 6.07
CH505.M11D8gp120/293F
  LogAUC: 1.43
CH505.M19D8gp120
  LogAUC: 1.54
CH505.M21D8gp120/293F
  LogAUC: 0
CH505.M9D8gp120/293F
  LogAUC: 0
CH505.M7D8gp120/293F
  LogAUC: 0
CH505.TF mutant gp120 M6
  LogAUC: 6.31
CH505.TF mutant gp120 M8
  LogAUC: 0
[1]
  LogAUC: 0
SSA [3]
  AtheNA signal: 224 relative luminescence units
Sm (Smith antigen) [4]
  AtheNA signal: 165 relative luminescence units
RNP (ribonucleoprotein) [5]
  AtheNA signal: 69 relative luminescence units
Scl-70 [6]
  AtheNA signal: 62 relative luminescence units
Histones [7]
  AtheNA signal: 193 relative luminescence units
SSA [8]
  AtheNA signal: 177 relative luminescence units
Sm (Smith antigen) [9]
  AtheNA signal: 128 relative luminescence units
Histones [10]
  AtheNA signal: 138 relative luminescence units
SSA [11]
  AtheNA signal: 185 relative luminescence units
Sm (Smith antigen) [12]
  AtheNA signal: 258 relative luminescence units
RNP (ribonucleoprotein) [13]
  AtheNA signal: 78 relative luminescence units
Scl-70 [14]
  AtheNA signal: 50 relative luminescence units
Histones [15]
  AtheNA signal: 234 relative luminescence units
SSA [16]
  AtheNA signal: 44 relative luminescence units
Sm (Smith antigen) [17]
  AtheNA signal: 184 relative luminescence units
RNP (ribonucleoprotein) [18]
  AtheNA signal: 40 relative luminescence units
Scl-70 [19]
  AtheNA signal: 31 relative luminescence units
Histones [20]
  AtheNA signal: 154 relative luminescence units
[21]
  IC50: 82.2 mg/L
